In article PMC9561280 one finds binding data, which are given here for one sequence.

For this data set, the target named is T1, Fur (Pseudomonas aeruginosa PA14) (UniProt Q03456).
T1 sequence: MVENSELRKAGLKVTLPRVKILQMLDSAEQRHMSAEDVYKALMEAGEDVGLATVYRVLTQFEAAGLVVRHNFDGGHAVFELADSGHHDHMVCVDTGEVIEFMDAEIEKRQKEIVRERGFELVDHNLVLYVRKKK
Put plainly: EMSA. The settings on record: 25 mM Tris-HCl pH 7.5, 150 mM NaCl, 20 ul, 4 C 30 min; 10% PAGE in 0.5x TBE; no metal stated. Background: Mobility shift assays separate free from complexed probe on a gel.

As to “CTGGTCGAGTCGATGATGGTGGCCGGGCGCTGAGGCCGGGTTTCCCTCTATAAAACGCCAGCGCTCGTCGCTGGCGTTTTCGTTTCCGCCTGTTCAATTGTCCGCCTCTATGGGGACCATGCTTGTCTTTTGCCAAGAAGAAAACAATAATCAATCTCATTATCGTCTGGTGAGGTTGCC (double strand) [PfagA (Ppa4471)]”, the binding result was “binds”.
